Data on 13 molecules can be found in patent US20200270339A1 (CEPHALON, published 2020).

The term Kd denotes the concentration at which binding is half-saturated. By koff is commonly meant the first-order rate constant of dissociation. Usually kon stands for a measure of how fast the partners come together. A higher kon goes with faster complex formation.

In assay [1] the target is T1, human IL-15 complexed with the IL-15 Receptor-alpha (human, UniProt P40933 49-162). The assay is described as follows: cell-based or functional assay.
Target sequence in this assay (P40933 49-162 limits assumed, one chain of several): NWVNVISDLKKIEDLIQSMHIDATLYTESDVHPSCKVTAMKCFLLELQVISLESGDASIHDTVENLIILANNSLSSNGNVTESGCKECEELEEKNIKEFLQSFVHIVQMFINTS
The target in a further assay is T2, IL-4 (UniProt P05112 25-153).
T2 sequence (looked up): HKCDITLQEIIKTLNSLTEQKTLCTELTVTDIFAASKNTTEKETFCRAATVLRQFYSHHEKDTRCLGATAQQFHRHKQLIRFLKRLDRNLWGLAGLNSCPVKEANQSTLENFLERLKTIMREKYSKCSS
The assay is described as follows: SPR, antibody captured on Protein A chip.

The target in the next assay is IL-21 (UniProt Q9HBE4 30-162, limits assumed). Briefly: SPR, antibody captured on Protein A chip. Background: SPR reads the build-up and loss of mass on a sensor chip optically.
Sequence of IL-21 (Q9HBE4 30-162 limits assumed): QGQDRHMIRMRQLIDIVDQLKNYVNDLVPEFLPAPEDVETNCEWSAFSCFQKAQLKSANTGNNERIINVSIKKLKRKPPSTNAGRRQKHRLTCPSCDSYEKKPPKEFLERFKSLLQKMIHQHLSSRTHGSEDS
Assay [2] addresses T3, uncomplexed IL-15 Receptor α (human).
T3 construct: also called IL-15Rα; IL15Rα
T3 chain: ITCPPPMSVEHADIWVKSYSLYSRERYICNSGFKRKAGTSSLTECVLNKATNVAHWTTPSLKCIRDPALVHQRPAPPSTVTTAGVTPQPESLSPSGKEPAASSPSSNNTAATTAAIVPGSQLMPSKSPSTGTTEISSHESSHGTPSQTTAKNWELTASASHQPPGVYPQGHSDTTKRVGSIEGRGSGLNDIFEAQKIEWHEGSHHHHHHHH
Briefly: SPR, antibody captured on Protein A chip.

A further assay concerns the target IL-9 (UniProt P15248 19-144). The assay is described as follows: SPR, antibody captured on Protein A chip.
Another assay deals with IL-2 (UniProt P60568 21-153). Briefly: SPR, antibody captured on Protein A chip.
Sequence of IL-2 (P60568 21-153 limits assumed): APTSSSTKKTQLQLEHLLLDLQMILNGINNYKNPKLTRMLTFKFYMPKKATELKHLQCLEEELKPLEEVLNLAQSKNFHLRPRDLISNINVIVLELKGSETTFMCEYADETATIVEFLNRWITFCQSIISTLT
A further assay has as its target T4, IL-7 (UniProt P13232 26-177).
T4 sequence (looked up): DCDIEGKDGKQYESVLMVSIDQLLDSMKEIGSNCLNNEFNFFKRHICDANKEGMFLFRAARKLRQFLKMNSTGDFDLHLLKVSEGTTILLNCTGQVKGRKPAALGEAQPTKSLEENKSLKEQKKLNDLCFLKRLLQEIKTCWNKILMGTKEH
The assay is described as follows: SPR, antibody captured on Protein A chip.

The target in assay [3] is T1, human IL-15 complexed with the IL-15 …. Briefly: SPR.
Target sequence in this assay (P40933 49-162 limits assumed, one chain of several): as the sequence (P40933 49-162 limits assumed, one chain of several) above
Assay [4] has the same target. Briefly: cell-based or functional assay. The source holds these as a separate data set.
Target sequence in this assay (P40933 49-162 limits assumed, chain 1 of 2, one chain of several): as the sequence (P40933 49-162 limits assumed, one chain of several) above
For assay [5] the target is unchanged. The assay is described as follows: SPR. This is another data set of the same source.
Target sequence in this assay (P40933 49-162 limits assumed, one chain of several): as above
For assay [6] the target is unchanged. Briefly: SPR. This is another data set of the same source.
Target sequence in this assay (P40933 49-162 limits assumed, one chain of several): as above
Assay [7] has the same target. The assay is described as follows: SPR. The source holds these as a separate data set.
Target sequence in this assay (P40933 49-162 limits assumed, one chain of several): as above

Where “and” joins values, the source holds several entries; their conditions need not be identical. Identical values can stand only once. Like-named read-outs stand apart in the source and are kept apart here.

Sequence of IL-9 (P15248 19-144 limits assumed): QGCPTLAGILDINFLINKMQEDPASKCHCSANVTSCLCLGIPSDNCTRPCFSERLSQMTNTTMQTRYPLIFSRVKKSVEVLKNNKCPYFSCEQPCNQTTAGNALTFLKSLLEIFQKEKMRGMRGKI

B1: Antibody 70b (antibody, human IgG1, lambda)
heavy: QVQLQESGPGLVKPSGTLSLTCAVSGGSISSSNWWSWVRQPPGKGLEWIGEIYHYGYTNYNPSLKSRVTISVDKSKNQFSLKLSSVTAADTAVYYCAREGIGWPSFDYWGQGTLVTVSSASTKGPSVFPLAPSSKSTSGGTAALGCLVKDYFPEPVTVSWNSGALTSGVHTFPAVLQSSGLYSLSSVVTVPSSSLGTQTYICNVNHKPSNTKVDKKVEPKSCDKTHTCPPCPAPELLGGPSVFLFPPKPKDTLYITREPEVTCVVVDVSHEDPEVKFNWYVDGVEVHNAKTKPREEQYNSTYRVVSVLTVLHQDWLNGKEYKCKVSNKALPAPIEKTISKAKGQPREPQVYTLPPSRDELTKNQVSLTCLVKGFYPSDIAVEWESNGQPENNYKTTPPVLDSDGSFFLYSKLTVDKSRWQQGNVFSCSVMHEALHNHYTQKSLSLSPG
light: SSELTQDPAASVALGQTVRITCQGDTLRSYYASWYQQKPGQAPILVIYGKNNRPSGIPDRFSGSSSGNTASLTITGAQAEDEADYYCNSRDLSGKNLVFGGGTKLTVLGQPKAAPSVTLFPPSSEELQANKATLVCLISDFYPGAVTVAWKADSSPVKAGVETTTPSKQSNNKYAASSYLSLTPEQWKSHRSYSCQVTHEGSTVEKTVAPTECS
Consider B1, for which, in [1], the “Max IC50 (pM), NK-92 proliferation assay” value stood at 16.6 pM. Also, in assay [1], the “Mean IC50 (pM), NK-92 proliferation assay” value was determined as 13.3 pM. For the same molecule, in assay [1], the “Min IC50 (pM), NK-92 proliferation assay” value came to 10.6 pM. Besides, the binding result (with IL-4; with IL-21; in [2]; with IL-9; with IL-2; with IL-7) was “no binding (tested: 10 µg/mL)” in each case. The Kd in assay [3] is 0.154 nM and 0.157 nM. Also, in [3], the koff is 3.92e-05 s⁻¹ and 3.89e-05 s⁻¹. In [3], the kon was 249000 M⁻¹ s⁻¹ and 254000 M⁻¹ s⁻¹.

B2: Antibody 70e (antibody, human IgG4 S228P, lambda)
heavy: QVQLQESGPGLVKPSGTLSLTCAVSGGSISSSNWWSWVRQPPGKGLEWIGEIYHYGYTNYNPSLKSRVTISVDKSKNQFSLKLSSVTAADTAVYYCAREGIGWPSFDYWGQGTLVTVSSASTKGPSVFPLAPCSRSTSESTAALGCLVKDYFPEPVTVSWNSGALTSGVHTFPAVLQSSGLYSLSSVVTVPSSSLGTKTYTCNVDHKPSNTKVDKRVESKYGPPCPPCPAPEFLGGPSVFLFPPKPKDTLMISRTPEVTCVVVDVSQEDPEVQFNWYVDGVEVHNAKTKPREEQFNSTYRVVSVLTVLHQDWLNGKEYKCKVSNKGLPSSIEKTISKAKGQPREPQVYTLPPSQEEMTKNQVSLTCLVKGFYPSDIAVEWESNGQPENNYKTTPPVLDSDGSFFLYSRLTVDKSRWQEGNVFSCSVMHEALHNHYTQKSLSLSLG
light: SSELTQDPAASVALGQTVRITCQGDTLRSYYASWYQQKPGQAPILVIYGKNNRPSGIPDRFSGSSSGNTASLTITGAQAEDEADYYCNSRDLSGKNLVFGGGTKLTVLGQPKAAPSVTLFPPSSEELQANKATLVCLISDFYPGAVTVAWKADSSPVKAGVETTTPSKQSNNKYAASSYLSLTPEQWKSHRSYSCQVTHEGSTVEKTVAPTECS
Consider B2, for which the “Max IC50 (pM), NK-92 proliferation assay” value in assay [1] worked out at 20.9 pM. Also, in assay [1], the “Mean IC50 (pM), NK-92 proliferation assay” value amounted to 15.7 pM. In addition, the “Min IC50 (pM), NK-92 proliferation assay” value in assay [1] came to 11.7 pM. For the same molecule, the binding result (with IL-4; in the assay with IL-21; in [2]; with IL-9; with IL-2; in the assay with IL-7) was “no binding (tested: 10 µg/mL)” in each case. Further, in [3], the Kd was 0.174 nM and 0.193 nM. The koff in assay [3] was 4.31e-05 s⁻¹ and 4.58e-05 s⁻¹. The kon in assay [3] was 237000 M⁻¹ s⁻¹ and 247000 M⁻¹ s⁻¹.

B3: Antibody 78 (antibody, V domains shown)
VH: QVQLQESGPGLVKPSGTLSLTCAVSGGSISSSNWWSWVRQPPGKGLEWIGEIYHYGYTNYNPSLKSRVTISVDKSKNQFSLKLISVTAADTAVYYCAREGIGWPSFDYWGQGTLVTVSS
VL: SSELTQDPAASVALGQTVRITCQGDTLRSYYASWYQQKPGQAPILVIYGKNNRPSGIPDRFSGSSSGNTASLTITGAQAEDEADYYCNSRESSGKNLVFGGGTKLTVL
Regarding B3, the “IC 50 (NK-92) in pM” value in [4] was found to be 168 pM.

B4: Antibody 81 (antibody, V domains shown)
VH: QVQLQESGPGLVKPSGTLSLTCAVSGGSISSSNWWSWVRQPPGKGLEWIGEIYHYGYTNYNPSLKSRVTISVDKSKNQFSLKLISVTAADTAVYYCAREGIGWPSFDYWGQGTLVTVSS
VL: SSELTQDPAASVALGQTVRITCQGDTLRSYYASWYQQKPGQAPILVIYGKNNRPSGIPDRFSGSSSGNTASLTITGAQAEDEADYYCNSRDFSGKNLVFGGGTKLTVL
B4: the “IC 50 (NK-92) in pM” value in assay [4] amounted to 17.3 pM.

B5: Antibody 80 (antibody, V domains shown)
VH: QVQLQESGPGLVKPSGTLSLTCAVSGGSISSSNWWSWVRQPPGKGLEWIGEIYHYGYTNYNPSLKSRVTISVDKSKNQFSLKLISVTAADTAVYYCAREGIGWPSFDYWGQGTLVTVSS
VL: SSELTQDPAASVALGQTVRITCQGDTLRSYYASWYQQKPGQAPILVIYGKNNRPSGIPDRFSGSSSGNTASLTITGAQAEDEADYYCNSRDESGKNLVFGGGTKLTVL
Regarding B5, in assay [4], the “IC 50 (NK-92) in pM” value is 22.8 pM.

B6: VL_K051A (antibody, V domains shown)
VH: QVQLQESGPGLVKPSGTLSLTCAVSGGSISSSNWWSWVRQPPGKGLEWIGEIYHSGNTNYNPSLKSRVTISVDKSKNQFSLKLISVTAADTAVYYCAREGIGWPSFDYWGQGTLVTVSS
VL: SSELTQDPAASVALGQTVRITCQGDTLRNYYASWYQQKPGQAPILVIYGANNRPSGIPDRFSGSSSGNTASLTITGAQAEDEADYYCNSRDSSGKNLVFGGGTKLTVL
notes: Antibody 4 with one substitution; also called ANTIBODY 30
For the molecule B6, the Kd in assay [5] worked out at 0.942 nM.

B7: VH_N058Q (antibody, V domains shown)
VH: QVQLQESGPGLVKPSGTLSLTCAVSGGSISSSNWWSWVRQPPGKGLEWIGEIYHSGNTQYNPSLKSRVTISVDKSKNQFSLKLISVTAADTAVYYCAREGIGWPSFDYWGQGTLVTVSS
VL: SSELTQDPAASVALGQTVRITCQGDTLRNYYASWYQQKPGQAPILVIYGKNNRPSGIPDRFSGSSSGNTASLTITGAQAEDEADYYCNSRDSSGKNLVFGGGTKLTVL
B7 came in with a Kd in [6] of 0.765 nM.

B8: Antibody 79 (antibody, V domains shown)
VH: QVQLQESGPGLVKPSGTLSLTCAVSGGSISSSNWWSWVRQPPGKGLEWIGEIYHYGYTNYNPSLKSRVTISVDKSKNQFSLKLISVTAADTAVYYCAREGIGWPSFDYWGQGTLVTVSS
VL: SSELTQDPAASVALGQTVRITCQGDTLRSYYASWYQQKPGQAPILVIYGKNNRPSGIPDRFSGSSSGNTASLTITGAQAEDEADYYCNSRDLSGKNLVFGGGTKLTVL
Take B8: the “IC 50 (NK-92) in pM” value in [4] amounted to 12.4 pM.

B9: VH_T057D (antibody, V domains shown)
VH: QVQLQESGPGLVKPSGTLSLTCAVSGGSISSSNWWSWVRQPPGKGLEWIGEIYHSGNDNYNPSLKSRVTISVDKSKNQFSLKLISVTAADTAVYYCAREGIGWPSFDYWGQGTLVTVSS
VL: SSELTQDPAASVALGQTVRITCQGDTLRNYYASWYQQKPGQAPILVIYGKNNRPSGIPDRFSGSSSGNTASLTITGAQAEDEADYYCNSRDSSGKNLVFGGGTKLTVL
notes: Antibody 4 with one substitution; also called ANTIBODY 25
As to B9, the Kd in assay [6] was 0.64 nM.

B10: VL_R054Y (antibody, V domains shown)
VH: QVQLQESGPGLVKPSGTLSLTCAVSGGSISSSNWWSWVRQPPGKGLEWIGEIYHSGNTNYNPSLKSRVTISVDKSKNQFSLKLISVTAADTAVYYCAREGIGWPSFDYWGQGTLVTVSS
VL: SSELTQDPAASVALGQTVRITCQGDTLRNYYASWYQQKPGQAPILVIYGKNNYPSGIPDRFSGSSSGNTASLTITGAQAEDEADYYCNSRDSSGKNLVFGGGTKLTVL
notes: Antibody 4 with one substitution; also called ANTIBODY 35
Molecule B10 yielded a Kd in assay [7] of 0.784 nM.

B11: VL_K051L (antibody, V domains shown)
VH: QVQLQESGPGLVKPSGTLSLTCAVSGGSISSSNWWSWVRQPPGKGLEWIGEIYHSGNTNYNPSLKSRVTISVDKSKNQFSLKLISVTAADTAVYYCAREGIGWPSFDYWGQGTLVTVSS
VL: SSELTQDPAASVALGQTVRITCQGDTLRNYYASWYQQKPGQAPILVIYGLNNRPSGIPDRFSGSSSGNTASLTITGAQAEDEADYYCNSRDSSGKNLVFGGGTKLTVL
notes: Antibody 4 with one substitution; also called ANTIBODY 32
Take B11: the Kd in [5] came to 0.865 nM.

B12: VL_R054L (antibody, V domains shown)
VH: QVQLQESGPGLVKPSGTLSLTCAVSGGSISSSNWWSWVRQPPGKGLEWIGEIYHSGNTNYNPSLKSRVTISVDKSKNQFSLKLISVTAADTAVYYCAREGIGWPSFDYWGQGTLVTVSS
VL: SSELTQDPAASVALGQTVRITCQGDTLRNYYASWYQQKPGQAPILVIYGKNNLPSGIPDRFSGSSSGNTASLTITGAQAEDEADYYCNSRDSSGKNLVFGGGTKLTVL
notes: Antibody 4 with one substitution; also called ANTIBODY 33
B12: in [7], the Kd came to 0.845 nM.

B13: VL_R054Q (antibody, V domains shown)
VH: QVQLQESGPGLVKPSGTLSLTCAVSGGSISSSNWWSWVRQPPGKGLEWIGEIYHSGNTNYNPSLKSRVTISVDKSKNQFSLKLISVTAADTAVYYCAREGIGWPSFDYWGQGTLVTVSS
VL: SSELTQDPAASVALGQTVRITCQGDTLRNYYASWYQQKPGQAPILVIYGKNNQPSGIPDRFSGSSSGNTASLTITGAQAEDEADYYCNSRDSSGKNLVFGGGTKLTVL
notes: Antibody 4 with one substitution; also called ANTIBODY 34
Regarding B13, binding in assay [7] was characterised by a dissociation constant (Kd) of 0.892 nM.
